Legend:
[1] = target: HLA-B*35:01; test: IEDB peptide-MHC binding, purified MHC/competitive/radioactivity; filed as Kd, often an IC50 or EC50 that approximates it; ≥ and ≤ were set here for values at or beyond the usual limits of such assays
[2] = target: HLA-B*51:01; test: as above
[3] = target: HLA-B*53:01; test: as above
[4] = target: HLA-A*32:01; test: as above
[5] = target: HLA-A*02:01; test: as above
[6] = target: HLA-A*02:02; test: as above
[7] = target: HLA-A*02:03; test: as above
[8] = target: HLA-A*02:06; test: as above
[9] = target: HLA-A*68:02; test: as above
[10] = target: HLA-B*07:02; test: as above
[11] = target: HLA-A*30:01; test: as above
[12] = target: HLA-A*01:01; test: as above
[13] = target: HLA-A*26:01; test: as above
[14] = target: HLA-A*29:02; test: as above; details: source organism: Lymphocytic choriomeningitis virus (strain Armstrong)
[15] = target: HLA-A*30:02; test: as above; details: source organism: Lymphocytic choriomeningitis virus (strain Armstrong)
[16] = target: HLA-A*02:01; test: IEDB peptide-MHC binding, purified MHC/competitive/fluorescence; filed as Kd, often an IC50 or EC50 that approximates it; ≥ and ≤ were set here for values at or beyond the usual limits of such assays
[17] = target: HLA-A*03:01; test: IEDB peptide-MHC binding, purified MHC/competitive/radioactivity; filed as Kd, often an IC50 or EC50 that approximates it; ≥ and ≤ were set here for values at or beyond the usual limits of such assays; details: source organism: Mammarenavirus whitewaterense
[18] = target: HLA-A*31:01; test: as above; details: source organism: Mammarenavirus whitewaterense
[19] = target: HLA-A*33:01; test: as above; details: source organism: Mammarenavirus whitewaterense
[20] = target: HLA-A*68:01; test: as above; details: source organism: Mammarenavirus whitewaterense
[21] = target: HLA-B*08:01; test: as above; details: source organism: Vaccinia virus WR
[22] = source organism: Dengue virus 1 Brazil/97-11/1997
[23] = source organism: Dengue virus 3 Martinique/1243/1999
[24] = source organism: Vaccinia virus WR
[25] = source organism: Lassa virus Josiah
[26] = source organism: Dengue virus 2 Jamaica/1409/1983
[27] = source organism: Dengue virus 4 Philippines/H241/1956
[28] = source organism: Lymphocytic choriomeningitis virus (strain Armstrong)
[29] = source organism: Dengue virus 2 Peru/IQT2913/1996
[30] = source organism: Hepatitis C virus (isolate Th580)

With LPDTIETLM as the sequence, how does the Kd [1, 22] read?
The Kd was 818 nM.

And the Kd [2, 22]?
Its Kd is 19000 nM.

What about the Kd [3, 22] of the same sequence?
The Kd was 428 nM.

Which Kd [2, 23] does the source give for LPPEKCDTL here?
Its Kd is 7730 nM.

Which Kd [4, 24] does the source give for LTNEIYASI here?
Its Kd is 12.9 nM.

With LTYSQLMTL as the sequence, how does the Kd [5, 25] read?
Its Kd is 227 nM.

And the Kd [6, 25]?
Its Kd is 11.1 nM.

What about the Kd [7, 25] of the same sequence?
Its Kd is 7.81 nM.

And the Kd [8, 25]?
Its Kd is 57.8 nM.

And the Kd [9, 25]?
The Kd was 103 nM.

Which Kd [9, 26] does the source give for LTYVVIAILT here?
Its Kd is 173 nM.

With MADVPLQWI as the sequence, how does the Kd ([2]; source organism: Dengue virus 3 Singapore/8120/1995) read?
The Kd was 2270 nM.

For MAVGMVSIL, which Kd [1, 26] is on record?
The Kd was 10.3 nM.

With MPVMKRYSAP as the sequence, how does the Kd [10, 27] read?
Its Kd is 9340 nM.

What about the Kd [1, 27] of the same sequence?
Its Kd is 502 nM.

What about the Kd [2, 27] of the same sequence?
Its Kd is at least 69600 nM.

And the Kd [3, 27]?
Its Kd is 16000 nM.

Which Kd [10, 22] does the source give for MPVTVASAA here?
Its Kd is 120 nM.

What about the Kd [1, 22] of the same sequence?
The Kd was 8.14 nM.

How did the Kd [11, 24] turn out when MQRIISLSV was run?
Its Kd is 8.81 nM.

How did the Kd [4, 24] turn out when MTMILFLKL was run?
The Kd was 248 nM.

For MTNGKINSL, which Kd [4, 24] is on record?
Its Kd is 22.3 nM.

With MTTEDMLKV as the sequence, how does the Kd [12, 27] read?
Its Kd is at least 22800 nM.

What about the Kd [9, 27] of the same sequence?
Its Kd is 41.8 nM.

How did the Kd ([9]; source organism: Dengue virus 1 Singapore/S275/1990) turn out when MVNGVVKLL was run?
Its Kd is 60.2 nM.

What does the source list for NANAYSGKY?
Kd [12, 28]: 515 nM; Kd [13, 28]: 4310 nM; Kd [14]: 1070 nM; Kd [11, 28]: ≥ 37600 nM; Kd [15]: 2.71 nM; Kd [4, 28]: ≥ 50000 nM

With NLPIYSEEI as the sequence, how does the Kd ([5]; source organism: Homo sapiens) read?
Its Kd is 66.6 nM.

What about the Kd ([6]; source organism: Homo sapiens) of the same sequence?
The Kd was 77.1 nM.

What about the Kd ([7]; source organism: Homo sapiens) of the same sequence?
The Kd was 390 nM.

And the Kd ([8]; source organism: Homo sapiens)?
Its Kd is 27.5 nM.

What about the Kd ([9]; source organism: Homo sapiens) of the same sequence?
The Kd was 39.3 nM.

QPHQLWTTL was tested. Which Kd [10, 22] did it give?
Its Kd is 3.43 nM.

For RFASALTAL, which Kd [10, 26] is on record?
Its Kd is 324 nM.

For RGRLLAAGK, which Kd [11, 24] is on record?
The Kd was 125 nM.

RHRKPTYEK was tested. Which Kd [11, 27] did it give?
The Kd was 24.5 nM.

RLSSNSRIL was tested. Which Kd ([5]; source organism: Hepatitis B virus) did it give?
Its Kd is at least 10000 nM.

With RQMATTTNPLI as the sequence, how does the Kd ([16]; source organism: Influenza A virus (A/parakeet/Chiba/1/97(H9N2))) read?
The Kd was 13 nM.

With RTKPISMYF as the sequence, how does the Kd ([11]; source organism: Vaccinia virus Copenhagen) read?
The Kd was 0.598 nM.

For RTKSKILFG, which Kd [11, 24] is on record?
The Kd was 10 nM.

How did the Kd [4, 26] turn out when RVPNYNLII was run?
The Kd was 148 nM.

How did the Kd [9, 22] turn out when SGIFVTNEV was run?
Its Kd is 46.9 nM.

Which Kd ([5]; source organism: Homo sapiens) does the source give for SLLMWITQC here?
Its Kd is at least 21100 nM.

Which Kd ([9]; source organism: Homo sapiens) does the source give for SLTCEVDAL here?
The Kd was 3120 nM.

How did the Kd [17] turn out when SSIIRSLPK was run?
Its Kd is 39 nM.

And the Kd ([11]; source organism: Mammarenavirus whitewaterense)?
The Kd was 180 nM.

And the Kd [18]?
The Kd was 1720 nM.

And the Kd [19]?
The Kd was at least 39400 nM.

What about the Kd [20] of the same sequence?
The Kd was 223 nM.

How did the Kd [13, 27] turn out when STRDGEPLM was run?
The Kd was 8190 nM.

And the Kd [11, 27]?
Its Kd is 71.6 nM.

For STRVPNYNL, which Kd [11, 27] is on record?
The Kd was 6.26 nM.

With SVSLVLVGV as the sequence, how does the Kd [9, 26] read?
Its Kd is 1.05 nM.

Which Kd [11, 24] does the source give for SYRTRAINK here?
The Kd was 1020 nM.

Which Kd [16, 24] does the source give for TLKQRLTNL here?
The Kd was 1390 nM.

And the Kd [21]?
The Kd was 1.74 nM.

TMEAMRIMGI was tested. Which Kd ([9]; source organism: Homo sapiens) did it give?
Its Kd is 21.9 nM.

For TPMMRHTIEN, which Kd [10, 22] is on record?
The Kd was 1940 nM.

How did the Kd [2, 29] turn out when TPVESWEEI was run?
Its Kd is 10500 nM.

And the Kd [3, 29]?
Its Kd is 157 nM.

What does the source list for TTAKEVALL?
Kd [13, 27]: 1900 nM; Kd [9, 27]: 21.8 nM

How did the Kd [6, 30] turn out when VLSDFKTWL was run?
The Kd was 263 nM.

What about the Kd [7, 30] of the same sequence?
The Kd was 290 nM.

What about the Kd [8, 30] of the same sequence?
Its Kd is at least 29500 nM.

What about the Kd [9, 30] of the same sequence?
Its Kd is at least 57400 nM.

For VQVLALEPGK, which Kd [11, 26] is on record?
Its Kd is 2520 nM.

WAYHGSYEA was tested. Which Kd [1, 27] did it give?
The Kd was 167 nM.

Which Kd ([5]; source organism: HIV-1 M:B_MN) does the source give for WLWYIKIFI here?
Its Kd is 141 nM.

For WPLHRMDLGV, which Kd [2, 27] is on record?
The Kd was 3280 nM.

For YMMNIYLNF, which Kd [4, 24] is on record?
The Kd was 2.93 nM.

YPLAIPVTM was tested. Which Kd [10, 27] did it give?
Its Kd is 44.6 nM.

And the Kd [1, 27]?
The Kd was 1.93 nM.

What about the Kd [2, 27] of the same sequence?
The Kd was 38.7 nM.

And the Kd [3, 27]?
Its Kd is 3.47 nM.

For YVVIGILTLA, which Kd [8, 23] is on record?
Its Kd is 47.4 nM.

And the Kd [9, 23]?
Its Kd is 123 nM.
